Laboratory results from patent US11833164B2, “Methods of treating Fabry disease in patients having a mutation in the GLA gene” (Amicus Therapeutics, Inc., priority 2019, dated 2023).
Substitutions are numbered along the chain they refer to. Names and notes keep the numbering of the source.

B1: I319M (protein)
chain: MQLRNPELHLGCALALRFLALVSWDIPGARALDNGLARTPTMGWLHWERFMCNLDCQEEPDSCISEKLFMEMAELMVSEGWKDAGYEYLCIDDCWMAPQRDSEGRLQADPQRFPHGIRQLANYVHSKGLKLGIYADVGNKTCAGFPGSFGYYDIDAQTFADWGVDLLKFDGCYCDSLENLADGYKHMSLALNRTGRSIVYSCEWPLYMWPFQKPNYTEIRQYCNHWRNFADIDDSWKSIKSILDWTSFNQERIVDVAGPGGWNDPDMLVIGNFGLSWNQQVTQMALWAIMAAPLFMSNDLRHISPQAKALLQDKDVIAMNQDPLGKQGYQLRQGDNFEVWERPLSGLAWAVAMINRQEIGGPRSYTIAVASLGKGVACNPACFITQLLPVKRKLGFYEWTSRLRSHINPTGTVLLQLENTMQMSLKDLL
B2: Y329H (protein)
chain: B1 chain with M319I, Y329H
B3: K326M (protein)
chain: B1 chain with M319I, K326M
B4: G325V (protein)
chain: B1 chain with M319I, G325V
B5: G325C (protein)
chain: B1 chain with M319I, G325C
B6: K326Q (protein)
chain: B1 chain with M319I, K326Q
B7: Q321K (protein)
chain: B1 chain with M319I, Q321K
B8: N320S (protein)
chain: B1 chain with M319I, N320S
B9: D322A (protein)
chain: B1 chain with M319I, D322A
B10: Q327H (protein)
chain: B1 chain with M319I, Q327H
B11: K326R (protein)
chain: B1 chain with M319I, K326R
B12: Q327P (protein)
chain: B1 chain with M319I, Q327P
B13: G325A (protein)
chain: B1 chain with M319I, G325A
B14: L324W (protein)
chain: B1 chain with M319I, L324W
B15: K326E (protein)
chain: B1 chain with M319I, K326E
B16: N320T (protein)
chain: B1 chain with M319I, N320T
B17: D322V (protein)
chain: B1 chain with M319I, D322V
B18: Y329C (protein)
chain: B1 chain with M319I, Y329C
B19: Y329F (protein)
chain: B1 chain with M319I, Y329F
B20: L324V (protein)
chain: B1 chain with M319I, L324V
B21: Y329D (protein)
chain: B1 chain with M319I, Y329D
B22: K326T (protein)
chain: B1 chain with M319I, K326T

System: mutant form of α-Gal A expressed in HEK-293 cells
Assay: HEK assay (GLP HEK / Migalastat Amenability Assay): α-Gal A activity in lysates of transiently transfected HEK-293 cells incubated with or without 10 μM migalastat
Format: cell-based, human
Conditions: 10 μM migalastat versus baseline
Procedure, shortened: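 HEK-293 cells transiently transfected with mutant α-Gal A and incubated with or without 10 μM migalastat; lysate activity given as nmol free 4-MU released per mg protein per hour. Values are mean±SEM.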

| Molecule | Absolute increase (% WT) | Relative increase |
| --- | --- | --- |
| B1 | 9.4 % WT | 1.2 |
| B2 | 16.2 % WT | 1.4 |
| B3 | 63.2 % WT | 3.7 |
| B4 | 17.1 % WT | 9.3 |
| B5 | 34.5 % WT | 1.7 |
| B6 | 26.1 % WT | 1.3 |
| B7 | 32.0 % WT | 2.1 |
| B8 | 23.9 % WT | 1.3 |
| B9 | 15.3 % WT | 3.2 |
| B10 | 7.4 % WT |  |
| B11 | 48.0 % WT | 1.8 |
| B12 | 36.4 % WT | 2.4 |
| B13 | 34.4 % WT | 1.5 |
| B14 | 19.8 % WT | 1.3 |
| B15 | 25.3 % WT | 1.4 |
| B16 | 21.8 % WT | 2.0 |
| B17 | 11.7 % WT | 5.6 |
| B18 | 7.8 % WT | 1.3 |
| B19 | 16.6 % WT | 1.5 |
| B20 | 13.0 % WT | 1.2 |
| B21 | 12.5 % WT | 3.9 |
| B22 | 26.4 % WT | 1.4 |

Same assay, conditions: absence of migalastat; percentage of baseline wild-type α-Gal A activity; mean ± SEM

| Molecule | Baseline α-Gal A activity (% WT) |
| --- | --- |
| B1 | 47.4 ± 2.2 % WT |
| B2 | 47.2 ± 3.8 % WT |
| B3 | 24.4 ± 1.6 % WT |
| B4 | 2.2 ± 0.2 % WT |
| B5 | 51.4 ± 1.7 % WT |
| B6 | 78 ± 3 % WT |
| B7 | 29.2 ± 2 % WT |
| B8 | 82.9 ± 4.5 % WT |
| B9 | 6.8 ± 0.4 % WT |
| B11 | 61.7 ± 3.4 % WT |
| B12 | 26.2 ± 1.8 % WT |
| B13 | 64.9 ± 3.8 % WT |
| B14 | 73.5 ± 1.8 % WT |
| B15 | 55.6 ± 2.6 % WT |
| B16 | 21.6 ± 1.5 % WT |
| B17 | 2.6 ± 0.2 % WT |
| B18 | 31.2 ± 1.5 % WT |
| B19 | 30.6 ± 1.5 % WT |
| B20 | 57.2 ± 2.1 % WT |
| B21 | 4.2 ± 0.2 % WT |
| B22 | 69.6 ± 2.4 % WT |

Same assay, conditions: lysates of HEK-293 cells transiently transfected with the mutant form, incubated 5 days in absence of migalastat; mean ± SEM

| Molecule | Baseline α-Gal A activity | Baseline α-Gal A activity (nmol/mg/hr) |
| --- | --- | --- |
| B1 | 12191 ± 433 nmol/mg/h |  |
| B2 | 13757 ± 963 nmol/mg/h |  |
| B3 | 8482 ± 500 nmol/mg/h |  |
| B4 | 572 ± 30 nmol/mg/h |  |
| B5 | 14482 ± 695 nmol/mg/h |  |
| B6 | 22075 ± 1209 nmol/mg/h |  |
| B7 | 7590 ± 520 nmol/mg/h |  |
| B8 | 21562 ± 1285 nmol/mg/h |  |
| B9 | 1908 ± 139 nmol/mg/h |  |
| B10 |  | BLD (“BLD” indicates that the mean α-Gal A activity was below the limit of detection (<142 nmol/mg/hr)) |
| B11 | 17744 ± 923 nmol/mg/h |  |
| B12 | 7775 ± 561 nmol/mg/h |  |
| B13 | 18183 ± 1254 nmol/mg/h |  |
| B14 | 20623 ± 721 nmol/mg/h |  |
| B15 | 15541 ± 832 nmol/mg/h |  |
| B16 | 5597 ± 442 nmol/mg/h |  |
| B17 | 714 ± 53 nmol/mg/h |  |
| B18 | 9148 ± 414 nmol/mg/h |  |
| B19 | 10368 ± 646 nmol/mg/h |  |
| B20 | 17027 ± 1167 nmol/mg/h |  |
| B21 | 1249 ± 66 nmol/mg/h |  |
| B22 | 19442 ± 739 nmol/mg/h |  |

Same assay, conditions: lysates of HEK-293 cells transiently transfected with the mutant form, incubated 5 days with 10 μM migalastat; mean ± SEM

| Molecule | 10 μM migalastat α-Gal A activity |
| --- | --- |
| B1 | 14802 ± 727 nmol/mg/h |
| B2 | 18672 ± 772 nmol/mg/h |
| B3 | 31204 ± 1979 nmol/mg/h |
| B4 | 5333 ± 294 nmol/mg/h |
| B5 | 23873 ± 1021 nmol/mg/h |
| B6 | 29168 ± 1869 nmol/mg/h |
| B7 | 16046 ± 870 nmol/mg/h |
| B8 | 28097 ± 1522 nmol/mg/h |
| B9 | 6170 ± 310 nmol/mg/h |
| B10 | 2197 ± 226 nmol/mg/h |
| B11 | 31690 ± 1112 nmol/mg/h |
| B12 | 18612 ± 1075 nmol/mg/h |
| B13 | 27523 ± 1456 nmol/mg/h |
| B14 | 25772 ± 1045 nmol/mg/h |
| B15 | 22340 ± 828 nmol/mg/h |
| B16 | 11276 ± 658 nmol/mg/h |
| B17 | 3989 ± 217 nmol/mg/h |
| B18 | 11442 ± 480 nmol/mg/h |
| B19 | 15566 ± 603 nmol/mg/h |
| B20 | 20866 ± 1331 nmol/mg/h |
| B21 | 4917 ± 181 nmol/mg/h |
| B22 | 26653 ± 877 nmol/mg/h |

Same assay, conditions: with 10 μM migalastat, 5 days; percentage of baseline wild-type α-Gal A activity; mean ± SEM

| Molecule | 10 μM migalastat α-Gal A activity (% WT) |
| --- | --- |
| B1 | 56.8 ± 2.3 % WT |
| B2 | 63.4 ± 2.6 % WT |
| B3 | 87.6 ± 3.5 % WT |
| B4 | 19.3 ± 1.1 % WT |
| B5 | 85.9 ± 4 % WT |
| B6 | 104.1 ± 5.7 % WT |
| B7 | 61.2 ± 2.4 % WT |
| B8 | 106.7 ± 3.9 % WT |
| B9 | 22.2 ± 1 % WT |
| B10 | 7.4 ± 0.7 % WT |
| B11 | 109.7 ± 2.9 % WT |
| B12 | 62.6 ± 3.1 % WT |
| B13 | 99.2 ± 5.4 % WT |
| B14 | 93.3 ± 4.5 % WT |
| B15 | 80.9 ± 3.9 % WT |
| B16 | 43.3 ± 1.9 % WT |
| B17 | 14.3 ± 0.6 % WT |
| B18 | 38.9 ± 1.6 % WT |
| B19 | 47.1 ± 2.8 % WT |
| B20 | 70.2 ± 2 % WT |
| B21 | 16.7 ± 0.6 % WT |
| B22 | 96 ± 3.7 % WT |
